{"source": "paper PMC3156243", "about": "“Properties and Crystal Structure of Methylenetetrahydrofolate Reductase from Thermus thermophilus HB8” (PLoS ONE, 2011)", "proteins": {"B1": {"name": "Methylenetetrahydrofolate reductase (MTHFR) from Thermus thermophilus HB8, C-terminally hexa-His-tagged wildtype (enzyme, UniProt Q5SLG6 1-296, looked up)", "chain": "MKIRDLLKARRGPLFSFEFFPPKDPEGEEALFRTLEELKAFRPAFVSITYGAMGSTRERSVAWAQRIQSLGLNPLAHLTVAGQSRKEVAEVLHRFVESGVENLLALRGDPPRGERVFRPHPEGFRYAAELVALIRERYGDRVSVGGAAYPEGHPESESLEADLRHFKAKVEAGLDFAITQLFFNNAHYFGFLERARRAGIGIPILPGIMPVTSYRQLRRFTEVCGASIPGPLLAKLERHQDDPKAVLEIGVEHAVRQVAELLEAGVEGVHFYTLNKSPATRMVLERLGLRPASGQP", "notes": "Methylenetetrahydrofolate reductase (MetF homologue) of Thermus thermophilus HB8, clone TTHA0327, wildtype gene amplified by PCR into pET23; the original stop codon was mutated to Ala before the C-terminal hexa-His tag; One polypeptide in two cofactor states: as purified about one FAD per dimer (apo- plus holo-subunit), after FAD treatment one FAD per subunit; The stop codon is replaced by Ala, …"}}, "target": "the molecule itself", "test": "SEC-MALS; as-purified MTHFR; HPLC on TSK-gel G3000SWxl with multi-angle light scattering and refractive index detectors; 50 mM Tris-HCl pH 6.8, 0.2 M NaCl; 0.5 ml/min; 0.1 mg protein/run"}
{"protein": "B1", "values": [{"measurement": "stoichiometry N", "value": 2}]}
